Experimental data from the nanobody polyreactivity screen of Harvey et al. (2022).

Test: yeast display, Sf9 membrane polyspecificity reagent, FACS + sequencing; frameworks hold sequencing errors
Method in brief: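 Nanobodies came from a synthetic yeast display library in Saccharomyces cerevisiae BJ5465, induced with galactose for 36–48 hours and stained for 1 hour at 4 °C with 10% biotinylated, detergent-solubilized Sf9 membrane reagent. Cells were enriched on streptavidin microbeads and then FACS-sorted, with low and high (top ~1%) gates set on anti-HA fluorescence for expression and streptavidin fluorescence for reagent binding. Each polyreactivity label reflects the gate a clone came from. Genes were amplified by colony PCR, sequenced by MiSeq 2 × 250 and filtered by CDR length.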

Sequence	polyreactivity (PSR sort gate)
QVQLVESGGGLVQAGGSRRLSCAASGFTFLAYALGWYRQAPGKERELVAAISWDGGSTYYADSVKGRFTISRDNAKNTVYLQMNSLKPEDTAVYYCNRRSRRQGGYWGQGTQVTVSS	high polyreactivity
QVQLVESGGGLVQAGGSLRLSCAASGSTFSYYTMGWYRQATGKERELVAAISGSGGSTYYADSVKGRFTISRDNAKNTVYLQMKSLKPEDTAVYYCAALRAGSKCFDFWGQGTQVTVSS	high polyreactivity
QVQLEESVGGLVQAGGSLRLICAASGSTFVYNAMGWYRPAPGTERELVAAISSGGSTDYADSVKGRFTISRDNAKNTVYLQMNSLKPEDTAVYYCAARPDYRYHYWGQGTQVTVSS	high polyreactivity
QVQLVESGGGLVQAGGSLRLSCAASGFTFVRYAMGWYRQAPGKERELVAAISSGGRTYYADSVKGRFTISRDNAKNTVYLQMNSLKPEDTAVYYCAADTKFGYGYWGQGTQVTVSS	high polyreactivity
QVQLVESGGGLVQAGGSLRLSCAASGRTFTSYAMGWYRQAPGKERELVAGISSGGSTFYADSVKGRFTISRDNAQNTVYLQMNSLKPEDTAVYYCAADFRRVFSKYSYYLYFDFDYWGQGTQVTVSS	low polyreactivity
QVQLQESGGGLVQACGSQRLSCAASGSISEGQDKGWYRRAPGKEREFVAGIAPGATTYYADSEKGRFTISRDNAKNTVYLQMNSLKPEDTAVYFCAARSVTETDHDYWGQGTQVTVSS	low polyreactivity
QVQLVESGGGLVQAGGSLRLSCAASGSTSPINAMGWYRQAPGKERELVAVISSSGGLTYYADSVKGRFTISRDNAKNTVYLQMNSLKPEDTAVYYCAKRFSRRQPDYDYGGQGTQVTVSS	high polyreactivity
QVQLVESGGGLVQAGGSIRLRCAASGGIFSVYAMGWYIQAPGKERELVASISLSGGSTSYADSVKGRFTISRDNAKNTVYLQMNSLKPEDTAVYYCNTDFGQAHTLSWYEDMDYWGQGTQVTVSS	low polyreactivity
QVQLVESGGGLVQAGGSLRLSCAASGSIITGYAMGWYRQAPGKERELVAAITGNAGSTYYADSVKGRFTISRDNAKNTVYLQMNSLKPEDTAVYYCNARSWYVRVDYWGQGTQVTVSS	low polyreactivity
QVQLVESGGGLVQAGGSLSLSCAASGSIFRTYALGWYRQAPGKERELVASITKSGARTYYADSVKGRFTISRDNAKNTVYLQMNSLKPEDTAVYYCAAGYYSVTSRRYRMYYWGQGTQVTVSS	high polyreactivity
QVQLVESGGGLVQAGGSLRLICAASGSTFYSNAMGWYRQAPGKERELVAAINYSGGGTYYADSVKGRFTISRDNAKNTVYLQMNSLKPEDTAVYYCAADGSYVHWEYGYWGQGTQVTVSS	low polyreactivity
QVQLVESGGGLVQAGGSLRLSCAASGRTLYHNAMGWYRQAPGKERELVAAISYRGTRTYYADSVKGRFTISRDKAKNTVYLQKNSLTPEDTAVYYCAADTTYATKSDYWGQGTQVTVSS	high polyreactivity
QVQLVESGGGLVQAGGSLRISCAASGSTFQGYAMGWYREAPGKERELVAAISGRSGSTYYADSVKGRFTISRDNAKNTVFLTMNSLKPVDSAVYYCNARFNRSRRTYDYWVQGTQVTVSS	high polyreactivity
QVQLVESGGGLVQAAGSLRLSCAASGRIFEIYAMGWYRQAPGKERELVAGITSVGSTNYADSVKGRFTISRDNAKNTVYLQMNSLKPVDTAVYYCAADTSVHSEVDYCGQGTQVTVSS	low polyreactivity
QVHLVESGGGLVQAGASLRLSCAASGITFRFNAMGWYRQAPGKEREFVAAITYSGDSTYYADSVKGRFTISRDNAKNTVYLQMNSLKPEDTAVYYCAADYYAISRRMFYYWGQGTQVTVSS	low polyreactivity
QVQLVESVGGLVQAGGSLRLSCAASGFIFGYNAMGWYRQAPGKERELVAAITSRGDRTYYADSVKGRFTISRDNAKNTVYLQMNSLKPEDTAVYYCAKATRGYRSPYCSIGYYYWGQGTQLTVSS	high polyreactivity
QVQLVESGGGLVQAGGSLRLTCAASGRIFLINAMGWYRPAPGKERDLVATISRSGASTDYADSVKGRFTISRDNAKYIVYLQMKSMKPEDTAVYYCNAKVYKRRVVPYDYWGQGSQVTVSS	high polyreactivity
QVQLVESGGGIVQAGGSLRLSCAASGIIFSIYGMGWYRQAPGKERELVAAINSGSSTNYADSVKGRFTISRDNAKNTVYLQMNSLKREDTAVYYCNADYRYPQYYHRTWIRYDYWGQGTQVTVSS	high polyreactivity
QVQLVESGGGLFQAGGSLRLSCAASGRTFLYYTMGWYRQAPGKERELVAAITSGTSTNYADSVKGRFTISRDNAKNTVYLQMNSLKPEDTAVYYCNKRAARSLNGYPLYGYYYWGQGTQVTVSS	low polyreactivity
QVQLVESGGGLVQAGGSLRLSCAASGSTFYTYAMGWYRQAPGKERELVAAISADGGRTYYADSVKGRFTISRDNAKNTVYLQMNSLKPEDTAVYYCAAEERRWSSYRYYYWGQGTQVTVSS	high polyreactivity
QVQLVESGGGLVQAGGSLRLSCAASGRTFGFYTMGWYRQAPGKERELVAGISRGGSTTYADSVKGRFTISRDNAKNTVYLQMNSLKPEDTAVYYCNADRSHYWLPYGVRFDYWGQGTQVTVSS	low polyreactivity
QVQLVESGGGLGQAGGSLRLSSAASGGTFGSNTMGWYRQAPGKERELVAAITSGVSTYYADSVKGRFTISRDNAKNTVYLQMNSLKPEDTAVYYCAADTTQLQGVEGDYWGQGTQVTVSS	low polyreactivity

Sequence	polyreactivity (PSR sort gate)
QVQHVESGGGLVQAGGSLRLSCASSGRIFSDYAMGWYRPAPGKERELVAAISRSGTRTYYADSVKGRFTISRDNAKNTVYFQMISLKPEDTAVYYCAAKTQSGRAGQEEDYWGQGTQVTVSS	high polyreactivity
QVQLVESGGGLVQAGGSIRLSCAASGSIYPFYSMGWYRQATGKEMELVAAISDSGGDTYYADSVKGRFTISRDNAKNTVYLQMNSLKPEDTAVYYCAADWFYNSFNYWGQGTQVTVSS	low polyreactivity
QVQLVESGGGLVQAGGSLRLSCAASGRTFGRNAMGWYRQAPGKVRELVAAINSDGSTYYADSVKGRFTISRDNAKNTVYLQMNSLKPEDTAVYYCAADTWVWTDYFRRFEYWGQGTQVTVSS	high polyreactivity
QVQLVESVGGLVQAGGSLRLSCAAYGYTFYSNAMGWYRQAPGKDRELVASIRSRGRSTYYADSVKGRFTISRDNAKNTVYLQMNSLKPEDTAVYYCAPLPNNPAVYAYDYWGEGTQVTVSS	low polyreactivity
QVQLVESGGGLVQAGGSLRLSCAASGIWNMGWYRQAPGKERELVAAISWSGASTYYADSVKGRFTISRDNAKNTVYLQMNSLKPEDTAVYYCALGFWHTYGYWGQGTQVTVSS	high polyreactivity
QVQLVESGGGLVQAGGSLRLSCAASGRIFKVYAMGWYRQAPGKERELVAVINGGGSTNYADSVKGRFTISRDNAKNTVYLQMNSLKPEDTAVYYCATEGYGHGGETDGGVYSDLGYWGQGTQVTVSS	low polyreactivity
QVQLVESGGGLVQAGGSLRLSCAASGSTFQANDMGWYRQAPGKERELVAAISTGGSSTYYADSVKGRFTISRDNAKNTVYLQMNCLKPEDTAVYYCAVDGLGGREGYWGQGTQVTVSS	high polyreactivity
QVQLVESGGGLVQAGGSLRLSCPSSGFTFSAYAMGWYRQAPGKERELVAAISTRGGSTRYADSVKGRFTISRDNAKNTVNVQMNSLTPDDTAVYYCAADTRSFYRYDYWGQGTQVTVSS	high polyreactivity
QVQLVESGGRLVQAGGSLRLTCAASGSTIYQYVMRWYRQAPGKERELVAVITWSGGRTYYADSVKGRFTISRDNAKNTVYLQMNSLKPEDTAGYYCAADPLSGYDYWGQGTHVTVSS	low polyreactivity
KVQLGESGGGLVQAGGSLRLSCAASGFIFGYNGMGWYRQAPGKERELVAGITYSDGSTYYADSVKGRFTISRDNAKNTVYLQMNSLKPEDTAVYYCAVDVIYYWAEDYDYWGQGTQVTVSS	low polyreactivity
QVQLVESGGGLDQAGGSLRLSCAASGRIFVFYTMAWYRQAPGKERDLVAAITKSGGSTYYADSVKGRFTISRDNAKNTVYFQMNSLKPEDTAVYYCATRDSPRTKNGYYYWGQGTQVTVSS	high polyreactivity
QVQLVESGGGLVQAGGSLRLSSAASGSTFLRYAMGWYRQAPGKERELVAAISYSGGSTYYADSVKGRFTISRDNAKNTVYLQMNSLIPQDTAVNYCNAGVFANDNGGRRDHFTWEYEYWGQGTQVTVSS	low polyreactivity
QVQLVESGGGLVQAGGSLRLSCAASGRTFPVYAMGWYRQAPGKERELVATIRRRDGSTYADSVKGRFTISRDNAKNTVYLQMNSLKPEDTAVYYCNAAYSQATPWYYAWYDYCGQGTQVTVSS	high polyreactivity
QVQLVESGGGLDQAGGSLRLSCAASGIFGVNTMGWYRQAPGKERELVASITSGGSTNYADSVKGRFTISRDNAKNTVYLQMNSLKPEDTAVYYCAAGLYLQGPFDYWGQGTQVTVSS	low polyreactivity
QVQLVESGGGLVQAGGSLRLRCAASGRIFNGYGMGWYRQAPGKERELVAAITWSGGGTYYADTVKGRFTISRDNAKNTVYLQRNSLKPEDTAVYYCAAYSSSYPDYDSWGQGTQVTVSS	low polyreactivity
QVQLVESGGGLVQAGGSLRLSCAASGSIFGQYAMGRYRQAPGKERDLVAAIDWSSASTYYADSVKGRVTISRDNAKNTVYLQMNSLKPEDTAVYDCNAVGKYYRYDYWGQGTQVTVSS	high polyreactivity
QVQLVESGGGLVQAGGSLRLSCAASGSTFINYAMGWYRQAPGKERELVAVITSDDGSTYYADSVKGRFTISRDNAKNTVYLQMNSLKPEDTAVYYCAADYYDQRYRPGPWYDYWGQGTQVTVSS	low polyreactivity
QVQHVESGGGLVQAGGSLRLSCAASGSTFQYPYTMGWYRQAPRKARELVAVISRTGGSTFYADSVKGRFTISRDNAKNTVYLQMNSLKPEDTAVYYCNARPRYKYPSYDYWGQGTQLTVSS	high polyreactivity
QVQLVESGGGLVQAGGSLRLSCAASGRIISINAMVWYRQAPGKERELVAAINSGGSTHYADSVKGRFTISRDNAKNTVYLQMNSLKPEDTAVYYCAARKTVSYFRVRTFDYWGQGTQVTVSS	low polyreactivity
QVQLVESGGGLVQAGGSLRLSCAASGITFWAYAMGWYRQAPGKERELVAAITSGGSTNYADSVKGRFTISRDNAKNTVYLQMNSLKPEDTAVYYCAKNYRYYVFYDGFDYWGQGTQVTVSS	low polyreactivity
QVQLVESGGGLVQAGGSLRLSCAASGRTLPVYAMGWYRQAPGKERELVAAITYSGGSTSYADYVKGRFTISRDNAKNTVYLQMNTLKPDDTAVYYCAAGYRYSEYYYWGQGTQVTVSS	low polyreactivity
